{
  "source": "paper PMC12913940",
  "target": "Crassostrea gigas GABARAPL2, Flag-tagged (Crassostrea gigas)",
  "assay": "co-IP",
  "data": [
    {"substance": "Crassostrea gigas starch-binding domain-containing protein 1 (STBD1), HA-tagged (natural protein)", "values": [
      {"measurement": "fold intensity of the co-IP against the other three Atg8 family members", "result": 4.4, "unit": "fold"}
    ]}
  ]
}
